# Source: the supplement of paper PMC6757056
# ± gives the standard deviation of the averaged measurements.
# B1: library; a variant is named by its letters at N, in order (parent)
# chain: GCUGUCACCGGUGCUUGGUACGUUAUAUUCAGCCGGUCUGAUGAGUCUNNNNNNAGACGAAACAGC
# What was measured:
# [1] = variants of: B1; experiment: FACS-Seq fitted mean relative fluorescence mCherry/BFP without ligand (log10 relative fluorescence); HEK293T overexpressing SLC46A1; higher = higher reporter protein expression; settings: without (6R,S)-folinic acid; ligand present: no
# Summary of the method: (§1)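 Fluorescence values are fitted normal means of bin counts along the mCherry/BFP axis. HEK293T libraries lentivirally carrying the ribozyme switch in an mCherry reporter, with an EF1α-BFP marker, were enriched, exposed to ligand or not for 48 h, and sorted into 6 bins. Genomic DNA per bin was PCR-amplified, barcoded and run on MiSeq. Means of log10(mCherry/BFP) were scaled to five spiked-in control ribozymes.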
# [2] = variants of: B1; experiment: normalized RNA/DNA level without ligand (relative to sTRSVctl = 100) (log10 (% of sTRSVctl)); HEK293T overexpressing SLC46A1; higher = less ribozyme self-cleavage, higher mRNA level; settings: without (6R,S)-folinic acid; ligand present: no
# Method: (§2)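 Hammerhead (sTRSV) ribozyme switch libraries with a ligand aptamer grafted on stem I and a randomized N4-6 loop II, cloned into the 3' UTR of mCherry and transiently transfected into HEK293T cells; RNA-Seq 72 h post transfection with ligand added 1 h before transfection; RNA read count / plasmid DNA read count normalized to the non-cleaving sTRSVctl (x100), log10; sequences with >100 DNA reads. FACS-Seq: lentiviral library sorted into 6 bins after 48 h ligand, log-normal fit mean of mCherry/BFP scaled to controls. Printed sequences are partial switch sequences.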
# [3] = variants of: B1; experiment: FACS-Seq fitted mean relative fluorescence mCherry/BFP with ligand (log10 relative fluorescence); HEK293T overexpressing SLC46A1; ligand concentration (+) FACS-Seq: 6 mM; higher = higher reporter protein expression; settings: with (6R,S)-folinic acid; ligand present: yes
# Summary of the method: as §1
# [4] = variants of: B1; experiment: normalized RNA/DNA level with ligand (relative to sTRSVctl = 100) (log10 (% of sTRSVctl)); HEK293T overexpressing SLC46A1; ligand concentration (+) RNA-Seq: 6 mM; higher = less ribozyme self-cleavage, higher mRNA level; settings: with (6R,S)-folinic acid; ligand present: yes
# Method: as §2
Variant,FACS-Seq fitted mean (log10) [1],normalized RNA/DNA level without ligand (log10) [2],FACS-Seq fitted mean (log10) [3],normalized RNA/DNA level with ligand (log10) [4]
GCUGUCACCGGUGCUUGGUACGUUAUAUUCAGCCGGUCUGAUGAGUCUAAGACAAGACGAAACAGC,0.531 ± 0.012,1.985 ± 0.0083,0.754 ± 0.13,2.01 ± 0.023
GCUGUCACCGGUGCUUGGUACGUUAUAUUCAGCCGGUCUGAUGAGUCUAAGACGAGACGAAACAGC,0.519 ± 0.038,1.92 ± 0.0073,0.622 ± 0.38,2 ± 0.058
GCUGUCACCGGUGCUUGGUACGUUAUAUUCAGCCGGUCUGAUGAGUCUUAGAGAAGACGAAACAGC,0.273 ± 0.12,1.807 ± 0.015,0.551 ± 0.33,1.99 ± 0.029
GCUGUCACCGGUGCUUGGUACGUUAUAUUCAGCCGGUCUGAUGAGUCUUAGACUAGACGAAACAGC,0.606 ± 0.02,2.0068 ± 0.00026,0.559 ± 0.038,1.98 ± 0.051
GCUGUCACCGGUGCUUGGUACGUUAUAUUCAGCCGGUCUGAUGAGUCUUAGACAAGACGAAACAGC,0.386 ± 0.0059,1.967 ± 0.0049,0.455 ± 0.17,2 ± 0.029
GCUGUCACCGGUGCUUGGUACGUUAUAUUCAGCCGGUCUGAUGAGUCUUAGACGAGACGAAACAGC,0.218 ± 0.052,1.754 ± 0.0068,0.17 ± 0.055,1.97 ± 0.029
GCUGUCACCGGUGCUUGGUACGUUAUAUUCAGCCGGUCUGAUGAGUCUGAGACUAGACGAAACAGC,0.361 ± 0.041,2.022 ± 0.0074,0.232 ± 0.024,2.02 ± 0.022
GCUGUCACCGGUGCUUGGUACGUUAUAUUCAGCCGGUCUGAUGAGUCUGAGAGAAGACGAAACAGC,0.2 ± 0.041,1.946 ± 0.011,0.279 ± 0.16,2.01 ± 0.038
GCUGUCACCGGUGCUUGGUACGUUAUAUUCAGCCGGUCUGAUGAGUCUCAGACCAGACGAAACAGC,0.131 ± 0.097,2.04 ± 0.012,0.261 ± 0.16,1.99 ± 0.031
GCUGUCACCGGUGCUUGGUACGUUAUAUUCAGCCGGUCUGAUGAGUCUCAGACAAGACGAAACAGC,0.583 ± 0.12,2.017 ± 0.00058,0.769 ± 0.2,1.98 ± 0.02
GCUGUCACCGGUGCUUGGUACGUUAUAUUCAGCCGGUCUGAUGAGUCUAAGAGAAGACGAAACAGC,0.0158 ± 0.096,1.929 ± 0.0075,0.157 ± 0.024,2.03 ± 0.049
